{"source": "patent US6858578", "target": "LDLR/TF chimeric protein with amino acids 1-374 of mature human LDLR fused to amino acids 20-698 of human transferrin (encoded by pEFBOS/LDLrTF1.S) (human)", "sequence (chain, as listed by the source mutant)": "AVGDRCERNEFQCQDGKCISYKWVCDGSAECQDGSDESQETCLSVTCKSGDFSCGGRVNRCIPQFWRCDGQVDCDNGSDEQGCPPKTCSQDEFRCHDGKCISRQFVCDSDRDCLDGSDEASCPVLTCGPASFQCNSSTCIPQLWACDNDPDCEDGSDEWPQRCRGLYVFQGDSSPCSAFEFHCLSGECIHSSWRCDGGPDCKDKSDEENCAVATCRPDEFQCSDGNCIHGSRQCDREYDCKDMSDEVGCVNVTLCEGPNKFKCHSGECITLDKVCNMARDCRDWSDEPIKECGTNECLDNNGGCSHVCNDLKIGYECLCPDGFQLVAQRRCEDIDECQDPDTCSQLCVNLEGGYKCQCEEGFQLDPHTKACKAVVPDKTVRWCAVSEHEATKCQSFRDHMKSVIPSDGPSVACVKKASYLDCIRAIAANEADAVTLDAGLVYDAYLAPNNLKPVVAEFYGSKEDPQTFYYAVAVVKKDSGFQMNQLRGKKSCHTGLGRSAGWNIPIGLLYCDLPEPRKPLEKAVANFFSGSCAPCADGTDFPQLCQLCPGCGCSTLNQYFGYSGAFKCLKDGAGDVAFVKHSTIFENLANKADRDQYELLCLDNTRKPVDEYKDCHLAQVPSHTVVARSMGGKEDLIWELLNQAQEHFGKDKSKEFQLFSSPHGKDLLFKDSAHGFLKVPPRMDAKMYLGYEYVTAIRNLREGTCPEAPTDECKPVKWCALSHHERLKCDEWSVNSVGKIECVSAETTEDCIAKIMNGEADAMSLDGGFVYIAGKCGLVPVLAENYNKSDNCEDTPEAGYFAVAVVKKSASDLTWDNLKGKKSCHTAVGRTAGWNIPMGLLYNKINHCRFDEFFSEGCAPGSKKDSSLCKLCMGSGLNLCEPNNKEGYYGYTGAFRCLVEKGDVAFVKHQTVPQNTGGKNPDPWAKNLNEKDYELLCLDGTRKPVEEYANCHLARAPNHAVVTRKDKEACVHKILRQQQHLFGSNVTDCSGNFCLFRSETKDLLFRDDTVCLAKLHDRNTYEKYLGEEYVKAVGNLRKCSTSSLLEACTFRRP", "experiment": "microplate assay: chimeric protein (13.3 nM) held by coated HTF-14, LDL 0.5-50 µg/ml, detected with sheep anti-human LDL; the signal at 50 µg/ml is taken as the maximum", "note": "Several values for one entry are separate records, joined by “and”; a condition that tells them apart may be missing. Equal values may be shown once.", "data": [{"substance": "human LDL (low density lipoprotein particle carrying one molecule of apolipoprotein B-100), P04114 28-4563", "values": [{"measurement": "EC50", "result": "1.6 µg/mL and 3.1 nM"}]}]}
